The record followed here is US20250115663A1 (CELLDEX THERAPEUTICS, published 2025).

What all share (experiment): ELISA, kappa-sCD40-Flag fusion captured on anti-Flag, anti-human IgG Fc-HRP
On the technique in general: An ELISA detects its analyte on a solid surface through an enzyme-linked reagent.

In assay [1] the target is T1, kappa-sCD40(1-94)-Flag point mutant T35E (human, UniProt P25942 21-114).
T1 construct: not shown: N-terminal human kappa light chain; C-terminal Flag tag
T1 chain: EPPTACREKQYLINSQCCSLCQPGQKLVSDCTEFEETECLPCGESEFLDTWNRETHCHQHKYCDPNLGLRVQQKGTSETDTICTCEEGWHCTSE

For assay [2], the target named is T2, kappa-sCD40(1-94)-Flag point mutant T4V (human, UniProt P25942 21-114).
T2 construct: not shown: N-terminal human kappa light chain; C-terminal Flag tag
T2 chain: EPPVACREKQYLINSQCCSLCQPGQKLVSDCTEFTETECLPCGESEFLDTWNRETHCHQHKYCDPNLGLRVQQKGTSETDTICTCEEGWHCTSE

For assay [3], the target named is T3, kappa-sCD40(1-94)-Flag point mutant A5T (human, UniProt P25942 21-114).
T3 construct: not shown: N-terminal human kappa light chain; C-terminal Flag tag
T3 chain: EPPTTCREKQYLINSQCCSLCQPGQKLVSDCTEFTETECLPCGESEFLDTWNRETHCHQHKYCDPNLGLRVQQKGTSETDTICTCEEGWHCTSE

Assay [4] concerns the target T4, kappa-sCD40-Flag fusion protein, fragment amino acids 36-130 (human, UniProt P25942 56-150).
T4 construct: not shown: N-terminal human kappa light chain; C-terminal Flag tag

For assay [5], the target named is T5, kappa-sCD40(1-94)-Flag point mutant F34L (human, UniProt P25942 21-114).
T5 construct: not shown: N-terminal human kappa light chain; C-terminal Flag tag
T5 chain: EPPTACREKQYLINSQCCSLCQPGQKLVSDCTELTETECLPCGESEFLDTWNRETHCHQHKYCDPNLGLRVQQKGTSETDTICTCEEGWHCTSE

Assay [6] addresses T6, kappa-sCD40-Flag fusion protein, full length ECD amino acid residues 1-173 (human, UniProt P25942 21-193).
T6 construct: also called full length sCD40; not shown: N-terminal human kappa light chain; C-terminal Flag tag

Assay [7] has as its target T7, kappa-sCD40(1-94)-Flag mutant fragment D (multiple mutations of residues 33-36) (human, UniProt P25942 21-114).
T7 construct: The text says only multiple mutations of residues 33-36 (human to mouse differences); that mutant D carries exactly these is inferred; also called D (33-36); not shown: N-terminal human kappa light chain; C-terminal Flag tag
T7 chain: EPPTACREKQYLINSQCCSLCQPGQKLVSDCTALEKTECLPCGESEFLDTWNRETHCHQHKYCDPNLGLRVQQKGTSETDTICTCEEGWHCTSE

The target in assay [8] is T8, kappa-sCD40(1-94)-Flag point mutant E36K (human, UniProt P25942 21-114).
T8 construct: not shown: N-terminal human kappa light chain; C-terminal Flag tag
T8 chain: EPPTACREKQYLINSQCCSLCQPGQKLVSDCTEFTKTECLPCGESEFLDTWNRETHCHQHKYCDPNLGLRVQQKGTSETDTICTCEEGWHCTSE

Assay [9] deals with T9, kappa-sCD40-Flag fusion protein, fragment amino acids 84-173 (human, UniProt P25942 104-193).
T9 construct: not shown: N-terminal human kappa light chain; C-terminal Flag tag

Assay [10] has as its target T10, kappa-sCD40(1-94)-Flag point mutant E1G (human, UniProt P25942 22-114).
T10 construct: not shown: N-terminal human kappa light chain; C-terminal Flag tag

Assay [11] has as its target T11, kappa-sCD40-Flag fusion protein, fragment amino acids 1-94 (human, UniProt P25942 21-114).
T11 construct: also called sCD40aa 1-94; not shown: N-terminal human kappa light chain; C-terminal Flag tag

Assay [12] has as its target T12, kappa-sCD40(1-94)-Flag mutant fragment A (multiple mutations of residues 1-5) (human, UniProt P25942 26-114).
T12 construct: The text says only multiple mutations of residues 1-5 (human to mouse differences); that mutant A carries exactly these is inferred; also called A (1-5); not shown: N-terminal human kappa light chain; C-terminal Flag tag

Assay [13] deals with T13, kappa-sCD40(1-94)-Flag point mutant P3S (human, UniProt P25942 21-114).
T13 construct: not shown: N-terminal human kappa light chain; C-terminal Flag tag
T13 chain: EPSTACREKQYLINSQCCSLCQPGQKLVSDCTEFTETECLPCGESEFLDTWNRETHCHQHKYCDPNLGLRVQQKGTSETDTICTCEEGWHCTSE

The target in assay [14] is T14, kappa-sCD40(1-94)-Flag point mutant E33A (human, UniProt P25942 21-114).
T14 construct: not shown: N-terminal human kappa light chain; C-terminal Flag tag
T14 chain: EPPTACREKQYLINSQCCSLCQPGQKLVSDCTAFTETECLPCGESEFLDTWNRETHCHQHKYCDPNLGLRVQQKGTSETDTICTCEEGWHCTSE

T4 sequence (P25942 56-150): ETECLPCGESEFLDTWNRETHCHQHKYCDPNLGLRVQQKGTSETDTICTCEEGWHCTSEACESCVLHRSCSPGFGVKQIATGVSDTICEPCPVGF
T9 sequence (P25942 104-193): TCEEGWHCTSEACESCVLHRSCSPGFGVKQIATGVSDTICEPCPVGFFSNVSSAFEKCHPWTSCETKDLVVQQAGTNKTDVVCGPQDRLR

B1: anti-CD40 human monoclonal antibody 3G5 (antibody, human IgG2, V domains shown)
VH: QVQLVESGGGVVQPGKSLRLSCAASGFTFSSNGIHWVRQAPGKGLEWVAVIWSDGSNKFYADSVKGRFTISRDNSKNTLYLQMNSLRAEDTAVYYCARASGSGSYYNFFDYWGQGTLVTVSS
VL: EIVMTQSPATLSVSPGERATLSCRASQSVRSNLAWYQQKPGQAPRLLIYGASTRATGIPARFSGSGSGTEFTLTINSLQSEDFAVYYCQQHNKWITFGQGTRLEIK
notes: Human IgG2
Consider B1, for which the OD in assay [1] is 2.13 OD 450-650; in assay [2] it was 2.21 OD 450-650; in [3], 2.2 OD 450-650; in [4], 0.048 OD 450-650; in assay [5] it was 1.19 OD 450-650; in assay [6] it was 2.21 OD 450-650. Besides, the OD turned out to be 0.042 OD 450-650 in [7]; 1.93 OD 450-650 in assay [8]; 0.038 OD 450-650 in assay [9]; 2.08 OD 450-650 in assay [10]; 2.17 OD 450-650 in [11]; 2.14 OD 450-650 in assay [12]. Moreover, the values for the OD in [13] and in [14] were 2.19 OD 450-650 and 0.074 OD 450-650, respectively.

B2: anti-CD40 human monoclonal antibody 3C3 (antibody, human IgG2, kappa, V domains shown)
VH: QVQLVESGGGVVQPGRSLRLSCAGSGFIFSRYGMYWVRQAPGKGLEWVAVIWYDGSYKYYADSVKGRFTISRDNSKNTLYLQMNSLRAEDTAVYYCARESPWYYFDYWGQGTLVTVSS
VL: DIQMTQSPSSLSASVGDRVTITCRASQGISNYLAWYQQKPGKVPKLLIYAASTLQSGVPSRFSGSGSGTDFTLTISSLQPEDVATYYCQKYKSAPFTFGPGTKVDIKR
notes: Human IgG2, C-terminal lysine removed; also called anti-CD40 mAb 3C3; CD40 antibody 3C3
In the case of B2, the OD in assay [1] was found to be 2.1 OD 450-650; in [2], 2.21 OD 450-650; in assay [3], 1.51 OD 450-650; in assay [4] it was 0.029 OD 450-650; in [5], 1.84 OD 450-650; in assay [6] it was 2.36 OD 450-650. The OD in assay [7] was determined as 0.233 OD 450-650; in [8], 1.69 OD 450-650; in assay [9], 0.024 OD 450-650; in [10], 2.01 OD 450-650; in assay [11], 2.15 OD 450-650; in assay [12], 0.25 OD 450-650. In addition, the OD turned out to be 2.01 OD 450-650 in assay [13] and 1.7 OD 450-650 in [14].
